Test results as given in PMC3031564, “Tartronate Semialdehyde Reductase Defines a Novel Rate-Limiting Step in Assimilation and Bioconversion of Glycerol in Ustilago maydis” (PLoS ONE, 2011).

How the values were obtained:
Assay in all cases: purified protein
Assay type in all cases: biochemical, Mycosarcoma maydis
O=CC(O)C(=O)O = details: reduction, cofactor NADH, 40°C, substrate made by enolization of lithium hydroxypyruvate (about 50% conversion, quantified by HPLC)
[1] = tested on: NC(=O)c1ccc[n+]([C@@H]2O[C@H](COP(=O)(O)OP(=O)(O)OC[C@H]3O[C@@H](n4cnc5c(N)ncnc54)[C@H](OP(=O)(O)O)[C@@H]3O)[C@@H](O)[C@H]2O)c1; details: oxidation, co-substrate D-glycerate, 40°C, assay buffer 50 mM glycine pH 8.5, pH 8.5, varied: cofactor
O=C(O)[C@H](O)CO = details: oxidation, 40°C, assay buffer 50 mM glycine pH 8.5, cofactor not stated for this row, pH 8.5
[2] = tested on: NC(=O)C1=CN([C@@H]2O[C@H](COP(=O)(O)OP(=O)(O)OC[C@H]3O[C@@H](n4cnc5c(N)ncnc54)[C@H](O)[C@@H]3O)[C@@H](O)[C@H]2O)C=CC1; details: reduction, co-substrate tartronic semialdehyde, 40°C, varied: cofactor

“rTsr1 (Um02592, tartronate semialdehyde reductase) (Mycosarcoma maydis; E78D)” was tested, and the Km (O=CC(O)C(=O)O) was 190 ± 30 µM, the Vmax (O=CC(O)C(=O)O) was 0.17 µmol/min/mg and the Km [1] was 0.30 ± 0.04 µM. For the same substance, the Vmax [1] was 0.93 µmol/min/mg, the Km (O=C(O)[C@H](O)CO) was 17700 ± 2300 µM and the Vmax (O=C(O)[C@H](O)CO) was 1.14 µmol/min/mg. The Km [2] was 14.29 ± 3.1 µM and the Vmax [2] was 5.07 µmol/min/mg.
